Data: US20180002420A1 (TRELLIS BIOSCIENCE, published 2018)
Values belong to the binder of their own block, whether it stands above or below them.

Experiments:
[1] = biological target: T1, KIR2DL3 Extracellular Domain (UniProt P43628 22-245, limits assumed); experiment: adsorption ELISA on coated KIR ECD, serial dilutions; printed as 'Affinity nM'
T1 construct: extracellular domain; ECD either purchased or produced in house; also called KIR2DL3 ECD
Method: (§1) The mAbs prepared in Example 1 were tested in adsorption ELISA using different KIR Extracellullar Domains (ECD), either purchased or produced in house. Serial dilutions allowed calculating binding affinities (listed below in Table 1 in nM); ND: not detectable.

[2] = biological target: T2, KIR2DL2 Extracellular Domain (UniProt P43627 22-245, limits assumed); experiment: as above
T2 construct: extracellular domain; ECD either purchased or produced in house; also called KIR2DL2 ECD
Method: as §1

[3] = biological target: T3, KIR3DL1 Extracellular Domain (UniProt P43629 22-340, limits assumed); experiment: as above
T3 construct: extracellular domain; ECD either purchased or produced in house; also called KIR3DL1 ECD
Method: as §1

[4] = biological target: T4, KIR3DS1 Extracellular Domain (UniProt Q14943 22-340, limits assumed); experiment: as above
T4 construct: extracellular domain; ECD either purchased or produced in house; also called KIR3DS1 ECD
Method: as §1

[5] = biological target: T5, KIR2DL4 Extracellular Domain (UniProt Q99706 22-242, limits assumed); experiment: as above
T5 construct: extracellular domain; ECD either purchased or produced in house; also called KIR2DL4 ECD
Method: as §1

[6] = biological target: T6, KIR2DL1 Extracellular Domain (UniProt P43626 22-245, limits assumed); experiment: as above
T6 construct: extracellular domain; ECD either purchased or produced in house; also called KIR2DL1 ECD
Method: as §1

[7] = biological target: T7, KIR3DL2 Extracellular Domain (UniProt P43630 22-340, limits assumed); experiment: adsorption ELISA on coated KIR ECD, serial dilutions; ND: not detectable
T7 construct: extracellular domain; ECD either purchased or produced in house; also called KIR3DL2 ECD
Method: as §1

[8] = biological target: T8, KIR3DL3 Extracellular Domain (UniProt Q8N743 26-322, limits assumed); experiment: as above
T8 construct: extracellular domain; ECD either purchased or produced in house; also called KIR3DL3 ECD
Method: as §1

[9] = biological target: T9, BSA (UniProt P02769 25-607); experiment: adsorption ELISA on coated BSA control, serial dilutions; ND: not detectable
T9 construct: Control protein in the adsorption ELISA

[10] = biological target: T10, KIR2DS4 Extracellular Domain (UniProt P43632 22-245, limits assumed); experiment: adsorption ELISA on coated KIR ECD, serial dilutions; printed as 'Affinity nM'
T10 construct: extracellular domain; ECD either purchased or produced in house; also called KIR2DS4 ECD
Method: as §1

[11] = biological target: T3, KIR3DL1 Extracellular Domain; experiment: adsorption ELISA on coated KIR ECD, serial dilutions; ND: not detectable
Method: as §1

[12] = biological target: T4, KIR3DS1 Extracellular Domain; experiment: as above
Method: as §1

[13] = biological target: T5, KIR2DL4 Extracellular Domain; experiment: as above
Method: as §1

[14] = biological target: T6, KIR2DL1 Extracellular Domain; experiment: as above
Method: as §1

[15] = biological target: T7, KIR3DL2 Extracellular Domain; experiment: adsorption ELISA on coated KIR ECD, serial dilutions; printed as 'Affinity nM'
Method: as §1

[16] = biological target: T10, KIR2DS4 Extracellular Domain; experiment: adsorption ELISA on coated KIR ECD, serial dilutions; ND: not detectable
Method: as §1

T10 sequence (P43632 22-245 limits assumed): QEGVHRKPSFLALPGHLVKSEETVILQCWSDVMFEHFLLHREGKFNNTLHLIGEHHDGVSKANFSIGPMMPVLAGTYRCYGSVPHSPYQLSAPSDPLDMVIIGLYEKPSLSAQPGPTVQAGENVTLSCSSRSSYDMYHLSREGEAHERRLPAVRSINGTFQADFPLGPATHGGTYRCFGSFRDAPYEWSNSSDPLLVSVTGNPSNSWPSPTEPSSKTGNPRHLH
T6 sequence (P43626 22-245 limits assumed): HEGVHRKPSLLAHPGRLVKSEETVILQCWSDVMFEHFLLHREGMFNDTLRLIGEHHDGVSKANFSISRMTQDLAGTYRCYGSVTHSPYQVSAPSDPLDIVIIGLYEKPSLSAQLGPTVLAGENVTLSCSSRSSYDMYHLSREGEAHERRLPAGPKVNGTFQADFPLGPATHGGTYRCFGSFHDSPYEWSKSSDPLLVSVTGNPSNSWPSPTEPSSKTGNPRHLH
T2 sequence (P43627 22-245 limits assumed): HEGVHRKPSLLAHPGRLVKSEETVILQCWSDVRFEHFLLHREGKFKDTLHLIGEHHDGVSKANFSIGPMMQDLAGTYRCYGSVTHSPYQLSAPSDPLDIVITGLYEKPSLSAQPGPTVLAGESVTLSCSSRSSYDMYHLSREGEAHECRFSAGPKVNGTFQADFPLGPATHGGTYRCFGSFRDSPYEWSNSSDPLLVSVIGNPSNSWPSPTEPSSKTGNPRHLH
T7 sequence (P43630 22-340 limits assumed): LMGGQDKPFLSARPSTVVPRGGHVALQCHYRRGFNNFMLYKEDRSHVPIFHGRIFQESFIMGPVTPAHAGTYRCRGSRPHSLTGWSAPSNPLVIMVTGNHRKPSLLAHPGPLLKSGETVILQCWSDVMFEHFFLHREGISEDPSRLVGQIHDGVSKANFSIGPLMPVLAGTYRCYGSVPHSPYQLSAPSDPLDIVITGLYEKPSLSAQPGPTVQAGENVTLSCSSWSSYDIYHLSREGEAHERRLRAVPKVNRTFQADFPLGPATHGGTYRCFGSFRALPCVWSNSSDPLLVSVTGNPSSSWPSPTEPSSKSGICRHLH
T1 sequence (P43628 22-245 limits assumed): as the sequence (P43627 22-245 limits assumed) above, with R16P, E35Q, C148R, I200T, K216E counted along it
T5 sequence (Q99706 22-242 limits assumed): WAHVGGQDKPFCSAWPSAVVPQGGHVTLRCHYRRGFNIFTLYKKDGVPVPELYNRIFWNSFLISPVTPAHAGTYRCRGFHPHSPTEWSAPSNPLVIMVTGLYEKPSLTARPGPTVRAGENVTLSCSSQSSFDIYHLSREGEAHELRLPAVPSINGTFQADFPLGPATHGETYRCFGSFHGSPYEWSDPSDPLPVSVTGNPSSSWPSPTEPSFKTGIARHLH
T9 sequence (P02769 25-607 limits assumed): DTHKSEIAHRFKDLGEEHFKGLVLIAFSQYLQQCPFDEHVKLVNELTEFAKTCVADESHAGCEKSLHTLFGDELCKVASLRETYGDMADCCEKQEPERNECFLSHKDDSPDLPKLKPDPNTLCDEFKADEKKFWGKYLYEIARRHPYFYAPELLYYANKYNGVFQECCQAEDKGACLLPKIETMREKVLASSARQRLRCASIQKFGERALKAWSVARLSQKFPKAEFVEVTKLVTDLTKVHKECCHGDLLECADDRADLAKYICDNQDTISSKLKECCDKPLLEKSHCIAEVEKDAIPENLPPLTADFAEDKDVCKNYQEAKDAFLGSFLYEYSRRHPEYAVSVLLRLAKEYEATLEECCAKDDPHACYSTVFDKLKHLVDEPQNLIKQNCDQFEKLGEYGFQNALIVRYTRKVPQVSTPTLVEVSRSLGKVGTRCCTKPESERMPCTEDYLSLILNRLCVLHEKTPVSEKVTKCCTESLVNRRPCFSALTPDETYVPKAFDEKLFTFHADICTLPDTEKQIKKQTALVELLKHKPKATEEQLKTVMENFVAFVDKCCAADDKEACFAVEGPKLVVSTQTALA
T3 sequence (P43629 22-340 limits assumed): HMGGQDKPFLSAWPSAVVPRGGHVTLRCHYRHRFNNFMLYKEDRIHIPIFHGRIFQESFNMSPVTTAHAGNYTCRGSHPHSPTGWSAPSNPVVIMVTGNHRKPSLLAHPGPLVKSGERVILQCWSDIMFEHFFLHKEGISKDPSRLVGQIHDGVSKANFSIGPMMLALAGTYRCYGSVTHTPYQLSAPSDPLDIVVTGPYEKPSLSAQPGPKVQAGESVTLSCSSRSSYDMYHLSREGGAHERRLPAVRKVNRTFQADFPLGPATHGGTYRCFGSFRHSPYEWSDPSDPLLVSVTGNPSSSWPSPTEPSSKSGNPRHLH
T8 sequence (Q8N743 26-322 limits assumed): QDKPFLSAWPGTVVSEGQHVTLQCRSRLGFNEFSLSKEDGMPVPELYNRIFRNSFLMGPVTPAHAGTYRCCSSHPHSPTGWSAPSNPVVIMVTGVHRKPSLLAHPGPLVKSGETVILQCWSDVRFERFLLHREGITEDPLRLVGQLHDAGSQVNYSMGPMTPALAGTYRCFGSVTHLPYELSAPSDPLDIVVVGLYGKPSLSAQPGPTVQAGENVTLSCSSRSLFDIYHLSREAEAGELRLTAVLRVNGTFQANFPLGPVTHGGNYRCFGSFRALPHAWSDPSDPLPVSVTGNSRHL
T4 sequence (Q14943 22-340 limits assumed): as the sequence (P43629 22-340 limits assumed) above, with I47V, S58G, V92M, K136R, G138W, P163S, L166R, P199L, P315L counted along it

Kd [1]: 79 nM
Kd [2]: 1800 nM
Kd [3]: 1900 nM
Kd [4]: 1800 nM
Kd [5]: 2000 nM
Kd [6]: 1100 nM
binding result [7]: no binding
binding result [8]: no binding
binding result [9]: no binding
B1: TRL8608 (antibody, V domains shown)
VH: QVQLVQSGAEVKKPGASVKISCKASGYTFTSYYMHWLRQAPGQGLEWMGVINPTDGSTSYAQKFHGRVTMTRVTSTSTVYMDLSSLRSDDTAMYYCAKAHIHAAEGEWFDPWGQGTLVTVSS
VL: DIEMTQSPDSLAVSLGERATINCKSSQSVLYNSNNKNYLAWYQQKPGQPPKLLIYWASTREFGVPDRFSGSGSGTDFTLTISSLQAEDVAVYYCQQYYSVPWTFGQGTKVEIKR
notes: Human variable regions cloned from donor B cells and fused recombinantly to an independently cloned generic constant region; Kappa light chain

Kd [1]: 0.005 nM
Kd [2]: 0.018 nM
Kd [10]: 2.6 nM
Kd [6]: 0.026 nM
binding result [7]: no binding
binding result [8]: no binding
binding result [11]: no binding
binding result [12]: no binding
binding result [13]: no binding
binding result [9]: no binding
B2: TRL8605 (antibody, V domains shown)
VH: QVQLVQSGGGVVQPGRSLRLSCAVSGFTFSSYGMHWVRQAPGKGLEWVTIISYDGSNYDYADSVKGRFTISRDNSKNMVYLQMNSLRADDTAVYYCAKDGFDYWGQGTLVTVSS
VL: DIVLTQSPDSLAVSLGERATINCKSSQSVLYSSNNRTYLAWFQQKSGQPPKLLIYWASTRQSGVADRFSGSGSGTDFTLTISSLQAEDVAVYYCQQYYTTPFTFGPGTRVDFKR
notes: as for B1

Kd [1]: 38 nM
Kd [2]: 12 nM
Kd [3]: 10 nM
Kd [10]: 55 nM
Kd [4]: 54 nM
binding result [7]: no binding
binding result [8]: no binding
binding result [13]: no binding
binding result [14]: no binding
binding result [9]: no binding
B3: TRL8504 (antibody, V domains shown)
VH: QVQLVESGGGVVRPGRSLRLSCAASGFTFNRFAMHWVRQAPGKGLEWVSVISYDGHNKYYIDSVKGRFTISRDDSKNTLHLQMNSLRPEDTAVYYCARARDDGRGIFDYWGQGILVTVSS
VL: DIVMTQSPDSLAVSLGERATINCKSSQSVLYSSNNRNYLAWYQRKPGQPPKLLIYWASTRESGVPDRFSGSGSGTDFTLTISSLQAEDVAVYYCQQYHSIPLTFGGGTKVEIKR
notes: as for B1

Kd [15]: 67 nM
Kd [1]: 0.1 nM
Kd [2]: 40 nM
binding result [8]: no binding
binding result [11]: no binding
binding result [16]: no binding
binding result [12]: no binding
binding result [13]: no binding
binding result [14]: no binding
binding result [9]: no binding
B4: TRL8507 (antibody, V domains shown)
VH: QVQLVESGGGVVQPGRSLRLSCAASGFTFSNYGMHWVRQAPGKGLEWVAVISFDGGNKYYADSVKGRFTISRDNSKNTLYLQMNSLRAEDTAVYYCAKSGYFDSSGYFYPYYYYGMDVWGQGTTVTVSS
VL: DIELTQAPSVSVSPGQTARITCSGDALPKEYAYWYQQKPGQAPVLVIYKDSERPSGIPERFSGSSSGTTVTLTISGVQAEDEGDYYCQSADSSGTHVVFGGGTKLTVL
notes: Human variable regions cloned from donor B cells and fused recombinantly to an independently cloned generic constant region; Lambda light chain
